We go through 26 molecules from patent US20230357447A1 (JANUX THERAPEUTICS, published 2023).

Read-outs that look alike come from different tables or passages of the source. Ends that are not written are not given here.

In assay [1] the target is T1, Anti-CD28 scFv (VH-linker 1-VL) (biotinylated (site not stated)).
T1 construct: biotinylated and captured on neutravidin coated plates in the phage ELISA
Description: phage ELISA, captured biotinylated scFv; background signal 0.061.

Assay [2] concerns the target T1, Anti-CD28 scFv (VH-linker 1-VL). The experiment in a line: phage ELISA, scFv wells pre-incubated with soluble CD28 (competitor); background signal 0.061. For orientation: ELISA stands for enzyme-linked immunosorbent assay.
Assay [3] has the same target. The experiment in a line: phage ELISA, scFv wells pre-incubated with soluble CD28 (competitor); background signal 0.078.
For assay [4] the target is unchanged. Description: phage ELISA, captured biotinylated scFv; background signal 0.078.
Assay [5] concerns the target T2, anti-CD28 scFv (SEQ ID NO: 9).
T2 construct: also called Anti-CD28 scFv (VH-linker 1-VL)
Description: competition ELISA: peptide titrated against 2 nM anti-CD28 scFv; binding of the scFv to captured biotinylated CD28 antigen is read.

Assay [6] shares this target. The assay is described as above. This is another data set of the same source.
Assay [7] has as its target T3, Ab-12, anti-PD-L1xCD28 non-masked antibody in Vh format.
T3 construct: also called PDL1xCD28 non-masked (Vh)
The experiment in a line: competition ELISA: peptide titrated against 5 nM Ab-12; binding of Ab-12 to captured biotinylated CD28 antigen is read.

The target of assay [8] is T2, anti-CD28 scFv (SEQ ID NO: 9). Description: competition ELISA: peptide titrated against 2 nM anti-CD28 scFv; binding of the scFv to captured biotinylated CD28 antigen is read. The source holds these as a separate data set.
For assay [9], the target named is T3, Ab-12, anti-PD-L1xCD28 non-masked …. The experiment in a line: competition ELISA: peptide titrated against 5 nM Ab-12; binding of Ab-12 to captured biotinylated CD28 antigen is read. This is another data set of the same source.
Assay [10] shares this target. Described as above. The source holds these as a separate data set.
Assay [11] has as its target T2, anti-CD28 scFv (SEQ ID NO: 9). Description: competition ELISA: peptide titrated against 2 nM anti-CD28 scFv; binding of the scFv to captured biotinylated CD28 antigen is read. This is another data set of the same source.
The target in assay [12] is T1, Anti-CD28 scFv (VH-linker 1-VL). Description: phage ELISA, captured biotinylated scFv; background signal 0.063.
For assay [13] the target is unchanged. Description: phage ELISA, scFv wells pre-incubated with soluble CD28 (competitor); background signal 0.063.
Assay [14] shares this target. Description: phage ELISA, scFv wells pre-incubated with soluble CD28 (competitor); background signal 0.068.
The target is the same in assay [15]. Description: phage ELISA, captured biotinylated scFv; background signal 0.068.
The target is the same in assay [16]. Description: phage ELISA, captured biotinylated scFv; background signal 0.079.
Assay [17] shares this target. The experiment in a line: phage ELISA, scFv wells pre-incubated with soluble CD28 (competitor); background signal 0.079.
Assay [18] shares this target. Description: phage ELISA, scFv wells pre-incubated with soluble CD28 (competitor); background signal 0.072.
Assay [19] has the same target. The experiment in a line: phage ELISA, captured biotinylated scFv; background signal 0.072.
Assay [20] has the same target. Description: phage ELISA, scFv wells pre-incubated with soluble CD28 (competitor); background signal 0.066.
For assay [21] the target is unchanged. The experiment in a line: phage ELISA, captured biotinylated scFv; background signal 0.066.
Assay [22] concerns the target T2, anti-CD28 scFv (SEQ ID NO: 9). Description: competition ELISA: peptide titrated against 2 nM anti-CD28 scFv; binding of the scFv to captured biotinylated CD28 antigen is read. The source holds these as a separate data set.
Assay [23] has as its target T3, Ab-12, anti-PD-L1xCD28 non-masked …. The experiment in a line: competition ELISA: peptide titrated against 5 nM Ab-12; binding of Ab-12 to captured biotinylated CD28 antigen is read. This is another data set of the same source.
Assay [24] shares this target. Description: competition ELISA: peptide titrated against 5 nM Ab-12; binding of Ab-12 to captured biotinylated CD28 antigen is read; table prints 'IC50 nM' but the axis is Log [Peptide, uM].

B1: Phage-40 (peptide)
peptide: MDWCPIDMWDQCFN
Consider B1, for which the “Phage binding ELISA CD28 scFv signal” value in [1] stood at 2.66. In addition, in assay [2], the “Phage binding ELISA CD28 scFv signal in presence of CD28” value was 0.297.

B2: Phage-97 (peptide)
peptide: MDWCPKDLWDYCFA
Turning to B2, in assay [3], the “Phage binding ELISA CD28 scFv signal in presence of CD28” value came out at 0.165. For the same molecule, the “Phage binding ELISA CD28 scFv signal” value in [4] was 2.57.

B3: Phage-88 (peptide)
peptide: MDWCPIHLWHYCFN
For B3, in assay [3], the “Phage binding ELISA CD28 scFv signal in presence of CD28” value was 0.453. Moreover, the “Phage binding ELISA CD28 scFv signal” value in [4] was determined as 2.6.

B4: Peptide-51 (peptide)
peptide: MDWCPRERWVDCFF
In general, IC50 refers to the concentration at which inhibition is half-maximal. Consider B4, for which the IC50 in [5] stood at 1370 nM; in [7], 2430 nM; in [8], 1630 nM; in assay [9], 2450 nM; in assay [10] it was 2620 nM; in [11] it was 1650 nM. Moreover, in assay [6], the “IC50 (read off the curve)” value was approximately 2000 nM.

B5: Phage-50 (peptide)
peptide: MDWCPPYLWNVCFS
Regarding B5, the “Phage binding ELISA CD28 scFv signal” value in assay [12] was 1.64. Besides, the “Phage binding ELISA CD28 scFv signal in presence of CD28” value in assay [13] was found to be 0.1.

B6: Phage-54 (peptide)
peptide: MNWCPRDMWYQCFN
Consider B6, for which, in assay [14], the “Phage binding ELISA CD28 scFv signal in presence of CD28” value is 0.177. Moreover, the “Phage binding ELISA CD28 scFv signal” value in [15] is 1.95.

B7: Phage-48 (peptide)
peptide: IDWCPRYLWDECYN
On to B7, for which the “Phage binding ELISA CD28 scFv signal” value in [1] is 2.24. Also, the “Phage binding ELISA CD28 scFv signal in presence of CD28” value in [2] is 0.153.

B8: Phage-56 (second entry so labelled, SEQ ID NO: 255) (peptide)
peptide: MDWCPRYLWNECFY
notes: label printed as Phage-56 between Phage-65 and Phage-67, probably Phage-66
On to B8, for which the “Phage binding ELISA CD28 scFv signal” value in [16] came to 2.54. Also, the “Phage binding ELISA CD28 scFv signal in presence of CD28” value in assay [17] was 0.358.

B9: Phage-28 (peptide)
peptide: MDWCPRDLWSECFF
Consider B9, for which the “Phage binding ELISA CD28 scFv signal in presence of CD28” value in assay [14] turned out to be 0.218. For the same molecule, the “Phage binding ELISA CD28 scFv signal” value in assay [15] worked out at 2.57.

B10: Phage-26 (peptide)
peptide: MDWCPRDLWHECFA
Regarding B10, the “Phage binding ELISA CD28 scFv signal” value in assay [12] turned out to be 2.71. Moreover, the “Phage binding ELISA CD28 scFv signal in presence of CD28” value in assay [13] was 0.277.

B11: Phage-36 (peptide)
peptide: MDWCPRYLWHVCFA
Turning to B11, the “Phage binding ELISA CD28 scFv signal in presence of CD28” value in assay [18] is 0.226. Further, the “Phage binding ELISA CD28 scFv signal” value in [19] was found to be 2.48.

B12: Phage-107 (peptide)
peptide: MDWCPRDLWAECFN
As for B12, in assay [2], the “Phage binding ELISA CD28 scFv signal in presence of CD28” value is 0.207.

B13: Phage-45 (peptide)
peptide: MDWCPRPLWHECFS
As for B13, the “Phage binding ELISA CD28 scFv signal in presence of CD28” value in [3] is 0.121. Moreover, the “Phage binding ELISA CD28 scFv signal” value in assay [4] came to 2.35.

B14: Phage-114 (peptide)
peptide: MDWCPRYLWFECFA
In the case of B14, the “Phage binding ELISA CD28 scFv signal in presence of CD28” value in assay [20] was found to be 0.21. Besides, in assay [21], the “Phage binding ELISA CD28 scFv signal” value turned out to be 2.5.

B15: Phage-79 (peptide)
peptide: MDWCPRDLWHECFS
Regarding B15, in [20], the “Phage binding ELISA CD28 scFv signal in presence of CD28” value turned out to be 0.382. Also, the “Phage binding ELISA CD28 scFv signal” value in assay [21] was determined as 2.65.

B16: Phage-86 (peptide)
peptide: MDWCPRHLWAECFF
For the molecule B16, the “Phage binding ELISA CD28 scFv signal in presence of CD28” value in assay [20] was determined as 0.292. Also, in assay [21], the “Phage binding ELISA CD28 scFv signal” value turned out to be 2.61.

B17: Phage-63 (peptide)
peptide: MDWCPRALWAECFN
Consider B17, for which the “Phage binding ELISA CD28 scFv signal in presence of CD28” value in [14] is 0.339. In addition, the “Phage binding ELISA CD28 scFv signal” value in assay [15] was found to be 2.68.

B18: Phage-106 (peptide)
peptide: MDWCPIYLWDECFN
For B18, the “Phage binding ELISA CD28 scFv signal in presence of CD28” value in assay [2] is 0.215.

B19: Phage-75 (peptide)
peptide: MDWCPRSHWHVCYN
As for B19, in [18], the “Phage binding ELISA CD28 scFv signal in presence of CD28” value was 0.281. In addition, in assay [19], the “Phage binding ELISA CD28 scFv signal” value came out at 1.95.

B20: Phage-25 (peptide)
peptide: MDWCPRDLWDLCFA
Take B20: the “Phage binding ELISA CD28 scFv signal in presence of CD28” value in assay [3] turned out to be 0.219. For the same molecule, in assay [4], the “Phage binding ELISA CD28 scFv signal” value was determined as 2.7.

B21: Phage-116 (peptide)
peptide: MDWCPRDLWYACFA
B21: in assay [18], the “Phage binding ELISA CD28 scFv signal in presence of CD28” value turned out to be 0.242. The “Phage binding ELISA CD28 scFv signal” value in assay [19] stood at 2.47.

B22: Peptide-9 (peptide)
peptide: MDWCPRERWVDCFF
modifications: cysteine pairing not given here; also: biotinylated, site not given here
For B22, the “IC50 (read off the curve)” value in assay [22] and in [23] was approximately 2000 nM each time. The IC50 was 1860 nM in [7]; 1280 nM in assay [8]; 2240 nM in [9]; 2630 nM in [10]; 1.54 nM in assay [24].

B23: Phage-37 (peptide)
peptide: MHWCPVDLWYLCYN
Turning to B23, in assay [16], the “Phage binding ELISA CD28 scFv signal” value worked out at 2.66. Moreover, the “Phage binding ELISA CD28 scFv signal in presence of CD28” value in assay [17] is 0.417.

B24: Phage-85 (peptide)
peptide: MDWCPMDLWYQCFN
On to B24, for which the “Phage binding ELISA CD28 scFv signal” value in assay [12] was 2.62. Moreover, the “Phage binding ELISA CD28 scFv signal in presence of CD28” value in assay [13] was found to be 0.187.

B25: Phage-19 (peptide)
peptide: MDWCPIDLWNECFF
Turning to B25, in assay [20], the “Phage binding ELISA CD28 scFv signal in presence of CD28” value amounted to 0.187. Moreover, the “Phage binding ELISA CD28 scFv signal” value in [21] turned out to be 2.52.

B26: Phage-38 (peptide)
peptide: MDWCPVHLWSVCFA
For the molecule B26, the “Phage binding ELISA CD28 scFv signal in presence of CD28” value in [18] amounted to 0.302. Besides, in [19], the “Phage binding ELISA CD28 scFv signal” value turned out to be 2.65.
